From US20140094417A1

Target: CD22 (UniProt P20273)
Assay: cell-based or functional assay

UniProt P20273, sequence (P20273 20-847 limits assumed): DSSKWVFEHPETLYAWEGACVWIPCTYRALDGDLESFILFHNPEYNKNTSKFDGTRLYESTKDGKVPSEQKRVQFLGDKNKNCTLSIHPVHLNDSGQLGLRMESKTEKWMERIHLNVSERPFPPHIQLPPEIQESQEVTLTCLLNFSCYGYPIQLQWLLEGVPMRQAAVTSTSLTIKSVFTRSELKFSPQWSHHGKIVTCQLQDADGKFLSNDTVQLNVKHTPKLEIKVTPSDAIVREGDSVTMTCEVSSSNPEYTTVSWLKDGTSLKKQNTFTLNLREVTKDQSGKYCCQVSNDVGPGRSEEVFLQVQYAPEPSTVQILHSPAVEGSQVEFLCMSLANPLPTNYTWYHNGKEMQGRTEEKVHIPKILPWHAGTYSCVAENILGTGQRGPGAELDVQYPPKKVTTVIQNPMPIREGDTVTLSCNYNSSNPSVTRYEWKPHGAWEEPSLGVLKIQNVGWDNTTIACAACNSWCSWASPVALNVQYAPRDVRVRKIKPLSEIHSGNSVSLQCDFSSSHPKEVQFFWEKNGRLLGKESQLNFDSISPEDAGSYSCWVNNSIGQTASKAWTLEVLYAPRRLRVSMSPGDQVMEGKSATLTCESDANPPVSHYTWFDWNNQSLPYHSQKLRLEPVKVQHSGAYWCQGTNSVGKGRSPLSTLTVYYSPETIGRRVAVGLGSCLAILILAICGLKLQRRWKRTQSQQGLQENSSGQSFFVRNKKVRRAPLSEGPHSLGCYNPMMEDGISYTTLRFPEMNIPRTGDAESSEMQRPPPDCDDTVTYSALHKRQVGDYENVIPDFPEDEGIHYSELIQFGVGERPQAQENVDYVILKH

Row | Substance | IC50 (ng/ml), cytotoxic activity on CA46 [ng/mL] | IC50 (ng/ml), cytotoxic activity on Daudi [ng/mL] | IC50 (ng/ml), cytotoxic activity on Raji [ng/mL] | activity on CA46 relative to HA22-LR [%] | activity on Daudi relative to HA22-LR [%] | activity on Raji relative to HA22-LR [%]
1 | HA22-LO10 | 0.38 | 0.3 | 1.5 | 29 | 60 | 27
2 | HA22-LR | 0.11 | 0.18 | 0.41 | – | – | –
